Results reported in publication PMC10038052.
Where two headings read alike, the source gives them in different places.

What was measured:
Assay in all cases: fluorescence polarization
[1] = biological target: T1, SRSF1 RRM1+2 (UniProt Q07955 1-195)
[2] = biological target: T2, MBP-hnRNP A2/B1 (1-251) (UniProt P22626 1-251)
[3] = biological target: T1, SRSF1 RRM1+2; remark: listed apart in the source
[4] = biological target: T2, MBP-hnRNP A2/B1 (1-251); remark: listed apart in the source
[5] = biological target: T2, MBP-hnRNP A2/B1 (1-251); remark: listed apart in the source

T2 sequence (P22626 1-251): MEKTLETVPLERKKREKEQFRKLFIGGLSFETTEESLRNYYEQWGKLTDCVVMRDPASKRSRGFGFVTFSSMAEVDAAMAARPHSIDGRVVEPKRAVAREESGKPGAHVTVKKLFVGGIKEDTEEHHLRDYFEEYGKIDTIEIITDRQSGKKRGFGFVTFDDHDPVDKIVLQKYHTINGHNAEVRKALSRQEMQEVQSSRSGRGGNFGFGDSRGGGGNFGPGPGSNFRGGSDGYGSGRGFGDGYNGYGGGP
T1 sequence (Q07955 1-195): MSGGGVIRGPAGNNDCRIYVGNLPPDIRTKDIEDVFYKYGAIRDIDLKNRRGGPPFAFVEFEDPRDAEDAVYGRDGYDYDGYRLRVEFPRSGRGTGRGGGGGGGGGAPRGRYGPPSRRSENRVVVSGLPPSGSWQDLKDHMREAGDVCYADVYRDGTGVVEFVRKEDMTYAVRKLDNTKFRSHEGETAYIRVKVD

## AGAAGAACAGAAGAAC (ssRNA) [FAM-S2 (A3 2n)]
[1]
  Kd: 56.1 ± 17.5 nM

## AAGGACUAGCAAGGACUAGC (ssRNA) [FAM-H2 (10 mer 2n)]
[2]
  Kd: 135 ± 9 nM

## AGAAGAACAGAAGAACAGAAGAAC (ssRNA) [FAM-S3 (A3 3n)]
[3]
  Kd: 42.5 ± 33.9 nM

## AAGGACUAGC (ssRNA) [FAM-H1 (10 mer 1n)]
[4]
  Kd: 51.7 ± 9 nM

## AAGGACUAGCAAGGACUAGCAAGGACUAGC (ssRNA) [FAM-H3 (10 mer 3n)]
[5]
  Kd: 24 ± 8.1 nM
